Consider one molecule from article PMC3464217, “Anti-HIV Double Variable Domain Immunoglobulins Binding Both gp41 and gp120 for Targeted Delivery of Immunoconjugates” (PLoS ONE, 2012).

This test deals with T1, recombinant gp160 (HIV-1 group M subtype B, IIIB (clone …, UniProt P03375, strain)).
T1 construct: also called rgp160; source: bought: Quality Biological; recombinant, expressed in mammalian cells
The experiment in a line: SPR. Conditions: both partners purified.

B1: 7B2 (antibody, V domains shown)
VH: QVQLVQSGGGVFKPGGSLRLSCEASGFTFTEYYMTWVRQAPGKGLEWLAYISKNGEYSKYSPSSNGRFTISRDNAKNSVFLQLDRLSADDTAVYYCARADGLTYFSELLQYIFDLWGQGARVTVSS
VL: DIVMTQSPDSLAVSPGERATIHCKSSQTLLYSSNNRHSIAWYQQRPGQPPKLLLYWASMRLSGVPDRFSGSGSGTDFTLTINNLQAEDVAIYYCHQYSSHPPTFGHGTRVELR
notes: also called anti-gp41 Ab (7B2); 7B2 parent; source: 293F cells, transiently transfected; purified from supernatant on Protein A agarose
B1: the binding result is “binds”.
